In paper PMC8233210, “The archaeal triphosphate tunnel metalloenzyme SaTTM defines structural determinants for the diverse activities in the CYTH protein family” (The Journal of Biological Chemistry, 2021):

What was measured:
SaTTM (Saci_0718) = target: T1, SaTTM (Saci_0718) (Sulfolobus acidocaldarius, UniProt Q4JAT2); assay: X-ray crystal structure of the complex; type: binding; details: 10 mM CaCl2, 5 mM PPi, pH 4.6, 4 °C; also 10 mM MgCl2 crystal without bound Mg2+; closed tunnel, active site
T1 construct: full ORF, C-terminal His6 (pSVA1028), expressed in E. coli BL21-Gold (DE3), heat step, IMAC, SEC; homodimer of 56 kDa

[1] = substrate: O=P(O)(O)OP(=O)(O)OP(=O)(O)O; assay: malachite green phosphate release, Michaelis-Menten fit; type: biochemical, Sulfolobus acidocaldarius; details: 2 mM MgCl2, 50 mM Tris, 200 mM NaCl, pH 8.6, 75 °C, 5 nM enzyme
[2] = target: the molecule itself; assay: SEC; analytical Superdex 200 10/300 GL, SEC buffer (200 mM NaCl, 50 mM Tris, pH 9.0), compared with standards

Molecule	X-ray crystal structure of the complex (SaTTM (Saci_0718))	Km [1]	kcat [1]	stoichiometry N [2]
O=P(O)(O)OP(=O)(O)O [PPi, pyrophosphate]	we determined crystal structures of SaTTM in complex with pyrophosphate			
Sulfolobus acidocaldarius triphosphate tunnel metalloenzyme (SaTTM) (enzyme, Sulfolobus acidocaldarius DSM 639, UniProt Q4JAT2 1-185, looked up, SaTTM (Saci_0718), CYTH ortholog of Sulfolobus acidocaldarius DSM 639; ORF amplified from the genome and cloned NcoI/BamHI into pSA4 to give pSVA1028; No step that removes the His6 tag is described; The NcoI cloning site may have changed the residue after the first methionine; also called Saci_0718; S. acidocaldarius CYTH enzyme; source: E. coli BL21-Gold (DE3), purified (heat step 70 °C, Ni-NTA, …)) MSYIEREIKLRVISPSLEEIEERIRNNYTFINEEHQIDIYYNNPIRDFRKSDEALRLRNTNGKVILTYKGPKQSKETKTREEIEVEVSDLHKMDLILRKLGFIRSFQVEKIRKNYKYADFIISLDSIKELGEFIEIEGINKTEKELISFVDEFVKKHQIQYEKTIKSYLELLVEHAKKTNNSNTH		41.0 (95% CI 29.8 to 55.4) μM	5934 s⁻¹	2
